Measured values taken from PMC10492824.

Assays:
[1] = target: Zn-containing form of the soluble domain of the Rieske-type iron-sulfur protein PetA from Thermochromatium tepidum (Thermochromatium tepidum); test: SEC-MALS; Superdex 200 Increase 10/300 GL, buffer A, 0.5 mL/min, 24 °C; about 100 µL of 7.3 mg/mL protein (first colorless SEC fraction) injected
[2] = target: Zn-containing form of the soluble domain of the Rieske-type iron-sulfur protein PetA from Thermochromatium tepidum (Thermochromatium tepidum); test: SEC; purification step after removal of the His-tag; HiLoad 16/60 Superdex 75 in buffer A (10 mM Tris-HCl pH 7.6, 150 mM NaCl); masses estimated with low molecular weight marker mixture

Zn-containing form of the soluble domain of the Rieske-type iron-sulfur protein PetA from Thermochromatium tepidum (domain or fragment)
stoichiometry N [1]: 2 | stoichiometry N [2]: 2
